This assay concerns the target RIM1α C2B domain. Nature of the assay: AUC.

For 1 substance, Kd and stoichiometry N results are on record in paper PMC2154361.

The substance RIM1α C2B domain (domain or fragment) had a Kd of 90 µM and a stoichiometry N of 2.

Usually Kd stands for the concentration at which binding is half-saturated. A high value points to lower affinity. The stoichiometry N is a count of units in the complex or per binding partner.
